Assay in all cases: purified protein
Common to all, as to type: biochemical, Clonorchis sinensis

For one data set, the system named is N=C(N)NCCS(=O)(=O)O. Particulars: co-substrate ATP, Mg-acetate, Tris-HCl pH 8, 25°C.
Substrate in data set [1]: N=C(N)NCCS(=O)(=O)O
The settings on record: co-substrate ATP, Mg-acetate, Tris-HCl pH 8, 25°C. The source holds these as a separate data set.

Substrate in data set [2]: Nc1ncnc2c1ncn2[C@@H]1O[C@H](COP(=O)(O)OP(=O)(O)OP(=O)(O)O)[C@@H](O)[C@H]1O
The settings on record: co-substrate taurocyamine, Mg-acetate, Tris-HCl pH 8, 25°C.

Regarding “C. sinensis TK D1 (CsTK D1) (Clonorchis sinensis; I60A)”, in the data set on N=C(N)NCCS(=O)(=O)O, the Km came out at 510 ± 70 µM, the turnover number (kcat) came out at 22.43 ± 0.38 s⁻¹ and the specificity constant (kcat/Km) was 44000 M⁻¹ s⁻¹.
Taken in the same sequence, the figures for “C. sinensis TK D1 (CsTK D1) (Clonorchis sinensis; R58A)” were 850 ± 60 µM, 33.03 ± 1.14 s⁻¹ and 38900 M⁻¹ s⁻¹.
For the molecule “C. sinensis TK D1 (CsTK D1) (Clonorchis sinensis; Y84A)”, in the data set with N=C(N)NCCS(=O)(=O)O, the Km is 820 ± 70 µM, the kcat is 32.90 ± 1.54 s⁻¹ and the kcat/Km is 40100 M⁻¹ s⁻¹.
Turning to “C. sinensis TK D2 (CsTK D2) (Clonorchis sinensis; H421A)”, in the data set with N=C(N)NCCS(=O)(=O)O, the Michaelis constant (Km) is 360 ± 70 µM, the catalytic constant (kcat) worked out at 5.92 ± 1.23 s⁻¹ and the catalytic efficiency (kcat/Km) was 15600 M⁻¹ s⁻¹.
Taken in the same sequence, the figures for “C. sinensis TK D2 (CsTK D2) (Clonorchis sinensis; I423A)” were 300 ± 50 µM, 6.46 ± 0.45 s⁻¹ and 21500 M⁻¹ s⁻¹.
For “C. sinensis TK D2 (CsTK D2) (Clonorchis sinensis; Y447A)”, in that order: 3640 ± 210 µM, 6.45 s⁻¹ and 1770 M⁻¹ s⁻¹.
For “C. sinensis TK D2 (CsTK D2) (Clonorchis sinensis; Y447R)”, in that order: 3010 ± 250 µM, 0.99 ± 0.52 s⁻¹ and 330 M⁻¹ s⁻¹.
As for “C. sinensis TK whole (CsTK D1D2) (Clonorchis sinensis; R58A)”, in the data set on N=C(N)NCCS(=O)(=O)O, the Km is 450 ± 190 µM, the kcat was found to be 15.00 ± 0.25 s⁻¹ and the specificity constant (kcat/Km) worked out at 33300 M⁻¹ s⁻¹.

B1: C. sinensis TK D2 (CsTK D2) (Clonorchis sinensis) (protein)
chain: AGVMPVEPLTYLSHLLEAADPVKNYTRKHLTPEIIKKYDGVRTTHGATLAHMVRNGAYNPHSICPRTGEAECYTKFVDYLDAVILDYHGVSDPAFKHPPPTFGDLNNLPFGDVDPEGKFVVSTRVRVGRSVDGFLFSTIMSKQDRLDLETKVSTALKSLTGDHAGSYYPLANMSEATRKQLVEDHFLFKNDDPVLRDAGGYRDWPHGRGIFHNANKTFLVWLCEEDHMRIISMQKGGDLAAVYKRLIQGIQAIEKTLPFAHSDKYGYITCCPSNLGTTMRASVLLKIPKLSAQKAKLDEVCAKYRLQARGLHGEHTESPEGIHDISNKRRLGLTELEAAKEMADGVAQMIAIEKSLP
notes: truncated C-terminal domain D2 (357 residues of the 717-residue two-domain protein, 39,719 Da); MBP fusion (pMAL-c2), E. coli TB1, amylose resin; about 80 kDa with MBP
With B1, in the data set “purified protein [1]”, the Km came to 480 ± 50 µM, the catalytic constant (kcat) is 4.50 ± 0.11 s⁻¹ and the kcat/Km was 9380 M⁻¹ s⁻¹. In “purified protein [2]”, the Km is 750 ± 130 µM and the catalytic constant (kcat) came to 4.50 ± 0.11 s⁻¹.

B2: C. sinensis TK whole (CsTK D1D2) (Clonorchis sinensis) (protein)
chain: MQVEPLKSLQQKIVNDEANRSFTKKHLTNRIVDLYADKKTSFGGSLAQCVSHNARNPRCILPRACDLDAYEAFREFFDAVIIDYHKVKGDKITHPKSDFGDLKSLNFKDLNADGNMVVSTRVRLGRTVAGYGFCPTISNEQRLELEKKISTALKDLSGEFKGTYYPLTGMKEEDRKKLVEKHFLFRDDDSVLRDAGGYIDWPNGRGIFINEKENFLVWVNEEDHIRVISMQKGGDLIAVYKRLANAISELGKSLTFATNDRFGFITFCPSNLGTTLRASVHARVPYLSALPNFEQICEKYNIQARGTHGEHTASVGGVYDLSNKRRLGLTEIEAVTEMYNGVQALLDLEKQLAAYNKDAPAGVMPVEPLTYLSHLLEAADPVKNYTRKHLTPEIIKKYDGVRTTHGATLAHMVRNGAYNPHSICPRTGEAECYTKFVDYLDAVILDYHGVSDPAFKHPPPTFGDLNNLPFGDVDPEGKFVVSTRVRVGRSVDGFLFSTIMSKQDRLDLETKVSTALKSLTGDHAGSYYPLANMSEATRKQLVEDHFLFKNDDPVLRDAGGYRDWPHGRGIFHNANKTFLVWLCEEDHMRIISMQKGGDLAAVYKRLIQGIQAIEKTLPFAHSDKYGYITCCPSNLGTTMRASVLLKIPKLSAQKAKLDEVCAKYRLQARGLHGEHTESPEGIHDISNKRRLGLTELEAAKEMADGVAQMIAIEKSLP
notes: full-length contiguous two-domain enzyme, 717 residues, 80,274 Da; MBP fusion (pMAL-c2), E. coli TB1, amylose resin; 120 kDa with MBP
Regarding B2, in “purified protein [1]”, the Michaelis constant (Km) stood at 490 ± 20 µM, the catalytic constant (kcat) came to 17.78 ± 0.98 s⁻¹ and the kcat/Km is 36300 M⁻¹ s⁻¹. Besides, in “purified protein [2]”, the Km came to 780 ± 70 µM and the turnover number (kcat) came out at 17.78 ± 0.98 s⁻¹.

B3: C. sinensis TK D1 (CsTK D1) (Clonorchis sinensis) (protein)
chain: MQVEPLKSLQQKIVNDEANRSFTKKHLTNRIVDLYADKKTSFGGSLAQCVSHNARNPRCILPRACDLDAYEAFREFFDAVIIDYHKVKGDKITHPKSDFGDLKSLNFKDLNADGNMVVSTRVRLGRTVAGYGFCPTISNEQRLELEKKISTALKDLSGEFKGTYYPLTGMKEEDRKKLVEKHFLFRDDDSVLRDAGGYIDWPNGRGIFINEKENFLVWVNEEDHIRVISMQKGGDLIAVYKRLANAISELGKSLTFATNDRFGFITFCPSNLGTTLRASVHARVPYLSALPNFEQICEKYNIQARGTHGEHTASVGGVYDLSNKRRLGLTEIEAVTEMYNGVQALLDLEKQLAAYNKDAP
notes: truncated N-terminal domain D1 (360 residues of the 717-residue two-domain protein, 40,573 Da); MBP fusion (pMAL-c2), E. coli TB1, amylose resin; about 80 kDa with MBP
Turning to B3, in the data set “purified protein [1]”, the Michaelis constant (Km) stood at 350 ± 10 µM, the kcat was 22.59 ± 0.15 s⁻¹ and the kcat/Km is 54500 M⁻¹ s⁻¹. Moreover, in “purified protein [2]”, the Km was 460 ± 120 µM and the turnover number (kcat) is 22.59 ± 0.15 s⁻¹.

In general, Km refers to the substrate concentration at which the rate is half of its maximum. As usually defined, the kcat is the maximal rate divided by the concentration of active sites. The kcat/Km is the turnover number divided by the Michaelis constant.

The values above are taken from PMC3836730, “Molecular Cloning and Characterization of Taurocyamine Kinase from Clonorchis sinensis: A Candidate Chemotherapeutic Target” (PLoS Neglected Tropical Diseases, 2013).
